{"source": "patent US20240301049A1", "about": "(Ablynx, published 2024)", "binders": {"B1": {"name": "F027201062 (bispecific antibody)", "chain": "DVQLVESGGGVVQPGGSLRLSCAASGRTFSNYAMAWFRQAPGKEREFVAVISYAGGRTYYADSVKGRFTISRDNAKNTVYLQMNSLRPEDTALYYCAAVDSPLIATHPRGYDYWGQGTLVTVSSGGGGSGGGSEVQLVESGGGVVQPGGSLRLSCAASGFTFRSFGMSWVRQAPGKGPEWVSSISGSGSDTLYADSVKGRFTISRDNSKNTLYLQMNSLRPEDTALYYCTIGGSLSRSSQGTLVTVSSGGGGSGGGSEVQLVESGGGVVQPGGSLRLSCAASGFTLAYYAIGWFRQAPGKEREGVSCISGSVGTTYYADSVKGRFTISRDNAKNTVYLQMNSLRPEDTALYYCVRSSWFDCGVQGRDLGNEYDYRGQGTLVTVSSGGGGSGGGSEVQLVESGGGVVQPGGSLRLSCTASGFTFSTADMGWFRQAPGKGREFVARISGIDGTTYYDEPVKGRFTISRDNSKNTVYLQMNSLRPEDTALYYCRSPRYADQWSAYDYWGQGTLVKVSSA", "notes": "anti-IL-6 (17C04, 6B12), anti-HSA (ALB23002), anti-TNF-α (6C11), C-terminal alanine; produced in Pichia pastoris; also called ISVD construct F027201062; Nanobody F027201062"}}, "test_in_all_cases": "cell-based or functional assay", "key": {"[1]": {"molecular_target": "T1, human TNF-α (human, UniProt P01375 77-233)", "T1 sequence (P01375 77-233 limits assumed)": "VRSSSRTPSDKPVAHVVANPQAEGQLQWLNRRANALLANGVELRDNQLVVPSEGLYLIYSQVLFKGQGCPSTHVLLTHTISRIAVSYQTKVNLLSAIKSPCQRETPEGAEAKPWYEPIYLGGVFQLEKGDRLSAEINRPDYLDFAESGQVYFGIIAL"}, "[2]": {"molecular_target": "T2, cyno IL-6 (cynomolgus monkey, UniProt P79341 28-212, limits assumed)", "T2 sequence (looked up)": "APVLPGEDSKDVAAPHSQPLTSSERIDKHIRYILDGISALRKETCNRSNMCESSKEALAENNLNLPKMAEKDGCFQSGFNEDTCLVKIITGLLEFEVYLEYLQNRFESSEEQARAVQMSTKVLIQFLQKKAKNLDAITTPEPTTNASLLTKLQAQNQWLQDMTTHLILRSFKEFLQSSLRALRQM"}, "[3]": {"molecular_target": "T1, human TNF-α", "remark": "listed apart in the source"}, "[4]": {"molecular_target": "cyno TNF-α (cynomolgus monkey, UniProt P79337 77-233)", "sequence (P79337 77-233 limits assumed)": "as the sequence (P01375 77-233 limits assumed) above, with L37V, R44T, T72N, R138L counted along it"}, "[5]": {"molecular_target": "human IL-6 (human, UniProt P05231 30-212)"}, "[6]": {"molecular_target": "T2, cyno IL-6", "remark": "listed apart in the source"}}, "note": "“And” between values parts separate entries of the source, which are not always exact repeats. Identical values can stand only once.", "data": [{"binder": "B1", "values": [{"measurement": "IC50, HEK293_NFκB-NLucP reporter assay", "setting": "[1]", "result": "0.0757 nM and 0.0257 nM and 0.0586 nM"}, {"measurement": "Ratio IC50 cyno IL-6/hIL-6", "setting": "[2]", "result": 0.5, "unit": "ratio"}, {"measurement": "IC50 hTNF-α Nfkb assay", "setting": "[3]", "result": 0.0978, "unit": "nM"}, {"measurement": "Ratio IC50 cyno TNFα/hTNFα", "setting": "[4]", "result": 2, "unit": "ratio"}, {"measurement": "IC50 hIL-6 TF1 proliferation assay", "setting": "[5]", "result": 0.134, "unit": "nM"}, {"measurement": "IC50, IL-6 induced TF-1 proliferation", "setting": "[6]", "result": "0.0646 nM and 0.0592 nM and 0.0434 nM"}]}]}
